From article PMC7273913 come the findings set out here.

The assay has as its target Xenopus laevis FANCD2, 6xHis-tagged (Xenopus laevis).

B1: Human FANCL URD-RING (109–375) hydrophobic patch mutant L248A, F252A, L254A, I265A (domain or fragment)
chain: QFYSSLIEEIGTLGWDKLVYADTCFSTIKLKAEDASGREHLITLKLKAKYPAESPDYFVDFPVPFCASWTPQSSLISIYSQFLAAIESLKAFWDVMDEIDEKTWVLEPEKPPRSATARRIALGNNVSINIEVDPRHPTMAPECAFAGADHVVKPLGAKLSRNIHLWDPENSVLQNLKDVLEIDFPARAILEKSDFTMDCGICYAYQLDGTIPDQVCDNSQCGQPFHQICLYEWLRGLLTSRQSFNIIFGECPYCSKPITLKMSGRKH
For B1, the in vitro FANCD2 monoubiquitination (Ube1, Ube2T, FANCL URD-RING, fluorescently labelled ubiquitin, 10 min at 30°C), against WT FANCL is 47 % of WT.
